Values joined by “and” are separate entries in the source; they are usually repeats but may differ in a detail not shown here. Identical values can stand only once.
Assays:
[1] = tested on: mammalian expression systems; conditions: cited from earlier work
oocyte = conditions: cited from earlier work
[2] = tested on: adult ventricular myocytes; experiment: Voltage clamp (tail currents) of HCN2 expressed with AdHCN2 in adult ventricular myocytes; format: cell-based, rat
Protocol: Freshly isolated adult ventricular myocytes were prepared using the procedure described by Kuznetsov et al. (1995). This entailed a Langendorff perfusion of collagenase, followed by trimming away of the atria. The remaining tissue was minced and dissociated in additional collagenase solution. The isolated myocytes were suspended in a SFM then plated on 9×22 mm glass coverslips at 0.5-1×10^3 cells/mm^2. Two to three hours later, after the myocytes had adhered to the coverslips, the adenoviral infection procedure was begun (see below).
For increased expression efficiency, an adenoviral construct for mHCN2 was prepared. Gene delivery and transfer procedures followed previously published methods (Ng et al., 2000; He et al., 1998). A DNA fragment (between EcoRI and XbaI restriction sites) that included mHCN2 DNA downstream of the CMV promoter was obtained from plasmid pTR-mHCN2 (Santoro and Tibbs, 1999) and subcloned into the shuttle vector pDC516 (AdMax™; Microbix Biosystems, Toronto, Canada). The resulting pDC516-mHCN2 shuttle plasmid was co-transfected with a 35.5 kb El-deleted Ad genomic plasmid pBHGΔE1,3FLP (AdMax™) into El-complementing HEK293 cells.
AdHCN2 infection of rat ventricular myocytes was carried out 2-3 h after the isolated cells were plated onto coverslips. The culture medium was removed from the dishes (35-mm) and the inoculum of 0.2-0.3 ml/dish was added containing AdHCN2. The value of m.o.i. (multiplicity of infection—the ratio of viral units to cells) was 15-100. The inoculum was dispersed over the cells every 20 min by gently tilting the dishes so that the cells were evenly exposed to the viral particles. The dishes were kept at 37° C. in a CO2 incubator during the adsorption period of 2 h, then the inoculum was discarded and the dishes were washed and refilled with the appropriate culture medium. The dishes remained in the incubator for 24-48 h before electrophysiological experiments were conducted.
(§1) The whole-cell voltage clamp technique was employed to record native If or expressed IHCN2 or IHCN4. Action potentials were recorded in current clamp mode, again using a whole cell patch electrode. Experiments were carried out on cells superfused at 35° C. Extracellular solution contained (mM): NaCl, 140; NaOH, 2.3; MgCl2, 1; KCl, 5.4; CaCl2, 1.0; HEPES, 5; glucose, 10; pH 7.4. To record from myocytes expressing native currents (If), myocytes expressing HCN2 (IHCN2) or HCN4 (IHCN4), [K^+]0 was increased to 10 mM, and MnCl2 (2 mM) and BaCl2 (4 mM) added to the superfusate to eliminate calcium and inward rectifier (IK1) currents. In some experiments CsCl (4 mM) was used extracellularly to identify the pacemaker current as the Cs-sensitive current. […]
The activation relation of the native or expressed current can be determined from the steady-state I-V relation. […]

[3] = tested on: neonatal rat ventricular myocytes; experiment: Voltage clamp of HCN2 or HCN4 plasmid (lipofectin) expressed in neonatal rat ventricular myocytes; format: cell-based
Excerpt: cDNAs encoding mouse HCN2 (mHCN2, GenBank AJ225122) or HCN4 (mHCN4, GenBank deposit in progress) were subcloned into the pCI mammalian expression vector (Promega, Madison, Wis.). The resulting plasmids (pCI-mHCN2 or pCI-mHCN4) were used for neonatal rat ventricular myocyte transfection, as indicated. A separate plasmid (pEGFP-CI; Clontech, Palo Alto, Calif.) expressing the gene of enhanced green fluorescent protein (EGFP) as a visual marker for successful DNA transfer was included in all transfection experiments. For transfection, 2 μg of pCI-mHCN and […] of pEGFP-CI were first incubated in 200 μl of SFM containing 10 μl of lipofectin (Gibco Life Technologies, Rockville, Md.) at room temperature for 45 min. The mixture was then added to a 35-mm petri dish containing […] suspended in 0.8 ml of SFM. After overnight incubation at 37° C. in a CO2 incubator, the medium containing the plasmids and lipofectin was discarded and the dish was refilled with 2 ml of fresh SFM.
as §1, with “current. The patch pipette solution included (mM): aspartic acid, 130; KOH, 146; NaCl, 10; CaCl2, 2; EGTA-KOH, 5; Mg-ATP, 2; HEPES-KOH, 10, pH 7.2. Where indicated, 10 μM cAMP was included in the pipette solution. A fast solution changing apparatus expedited the experimental protocols. The pipette resistance was typically 1-3 M. An Axopatch-200B amplifier and pClampS software (Axon Instruments) were used for acquisition and data analysis.” for “current.”
The activation relation of the native or expressed current can be determined from the steady-state I-V relation. In this case, the reversal potential (Vf) was separately determined from the fully activated I-V relation (Accili et al., 1991) and used to generate the activation relation (y=I/(gmax*(V−Vf)), where gmax is the maximal conductance). […] Tail currents were measured at a negative voltage (−125 mV) to avoid contamination by transient outward and other currents at less negative voltages. […]

[4] = tested on: cell-free patches from Xenopus oocytes; conditions: cited from earlier work

B1: mHCN2: mouse HCN2 hyperpolarization-activated, cyclic nucleotide-gated channel, wild type (GenBank AJ225122) (protein)
chain: MDARGGGGRPGDSPGTTPAPGPPPPPPPPAPPQPQPPPAPPPNPTTPSHPESADEPGPRARLCSRDSACTPGAAKGGANGECGRGEPQCSPEGPARGPKVSFSCRGAASGPSAAEEAGSEEAGPAGEPRGSQASFLQRQFGALLQPGVNKFSLRMFGSQKAVEREQERVKSAGAWIIHPYSDFRFYWDFTMLLFMVGNLIIIPVGITFFKDETTAPWIVFNVVSDTFFLMDLVLNFRTGIVIEDNTEIILDPEKIKKKYLRTWFVVDFVSSIPVDYIFLIVEKGIDSEVYKTARALRIVRFTKILSLLRLLRLSRLIRYIHQWEEIFHMTYDLASAVMRICNLISMMLLLCHWDGCLQFLVPMLQDFPSDCWVSINNMVNHSWSELYSFALFKAMSHMLCIGYGRQAPESMTDIWLTMLSMIVGATCYAMFIGHATALIQSLDSSRRQYQEKYKQVEQYMSFHKLPADFRQKIHDYYEHRYQGKMFDEDSILGELNGPLREEIVNFNCRKLVASMPLFANADPNFVTAMLTKLKFEVFQPGDYIIREGTIGKKMYFIQHGVVSVLTKGNKEMKLSDGSYFGEICLLTRGRRTASVRADTYCRLYSLSVDNFNEVLEEYPMMRRAFETVAIDRLDRIGKKNSILLHKVQHDLSSGVFNNQENAIIQEIVKYDREMVQQAELGQRVGLFPPPPPPQVTSAIATLQQAVAMSFCPQVARPLVGPLALGSPRLVRRAPPGPLPPAASPGPPAASPPAAPSSPRAPRTSPYGVPGSPATRVGPALPARRLSRASRPLSASQPSLPHGVPAPSPAASARPASSSTPRLGPAPTARTAAPSPDRRDSASPGAASGLDPLDSARSRLSSNL
midpoint of activation reported in other mammalian expression studies [1]: −83 to −97 mV
midpoint of activation (oocyte): −78 mV
shift of voltage dependence by saturating cAMP, adult ([2]; 10 μM cAMP in the pipette): 14 mV
slope factor (K), adult myocytes ([2]; AdHCN2): 6.5±0.5 mV
negative shift of voltage dependence of activation/deactivation kinetics in the adult ([2]; adult vs neonatal): 21 mV
shift in the activation relation (midpoints), adult vs neonatal myocytes ([2]; negative in the adult): 18 mV
slope factor (K) ([3]; lipofectin transfection): 7.7±0.7 mV
difference in midpoint of activation of HCN2 relative to HCN4 ([3]; neonatal myocytes): 8.5 mV and 9 mV
shift of activation curve to more positive potentials by cAMP ([4]; binding of cAMP to the CNBD): 17 mV
steady-state activation curve more hyperpolarized than that of HCN1 [4]: 20 mV
